PMC6213189, “ABD-Derived Protein Blockers of Human IL-17 Receptor A as Non-IgG Alternatives for Modulation of IL-17-Dependent Pro-Inflammatory Axis” (International Journal of Molecular Sciences, 2018)
Ends that are not written are not given here. TolA = 305-residue helical TolA spacer protein; AVI = AviTag

B1: His6-ARS014-TolA-AVI (designed binder)
chain: His6-LAEAKVLANRELDKYGVSDVYKNLINYAWLVMWVPIDAILALLP-{TolA-AVI}
modifications: also: biotin on the AviTag (in vivo biotinylated)
notes: ABD-derived variant selected by ribosome display; positions 35-36 are deleted; source: E. coli BL21 (DE3) BirA, purified (Ni-NTA); not shown: His6, N-terminal, kept; TolA spacer protein (305 residues), C-terminal, kept
B2: His6-ARS019-TolA-AVI (designed binder)
chain: His6-LAEAKVLANRELDKYGVSDMYKNVINIAWWVSIVKYPIDCILALLP
modifications: not fully specified (C-terminus); also: His6-TolA-AviTag fusion, not in given chain, biotin on the AviTag (in vivo biotinylated)
notes: ABD-derived variant selected by ribosome display; source: E. coli BL21 (DE3) BirA, purified (Ni-NTA); not shown: His6, N-terminal, kept; TolA spacer protein (305 residues), C-terminal, kept
B3: His6-ARS004-TolA-AVI (designed binder)
chain: His6-LAEAKVLANRELDKYGVSDVYKLINYACPVTWVKWVIDPILAMLP-{TolA-AVI}
modifications: also: biotin on the AviTag (in vivo biotinylated)
notes: ABD-derived variant selected by ribosome display; position 23 is deleted; source: E. coli BL21 (DE3) BirA, purified (Ni-NTA); not shown: His6, N-terminal, kept; TolA spacer protein (305 residues), C-terminal, kept
B4: His6-ARS012-TolA-AVI (designed binder)
chain: His6-LAEAKVLANRELDKYGVSDVYKLINMALYVTGVKPWIDVILAVLP-{TolA-AVI}
modifications: also: biotin on the AviTag (in vivo biotinylated)
notes: as for B3
B5: His6-ARS043-TolA-AVI (designed binder)
chain: His6-LAEAKVLANRELDKYGVSDLYKNMINMALWVTGVKWLIDPILATLP
modifications: not fully specified (C-terminus); also: His6-TolA-AviTag fusion, not in given chain, biotin on the AviTag (in vivo biotinylated)
notes: as for B2

Molecular target: T1, human IL-17RA on the cell surface (human (endogenous in THP-1 and HaCaT), UniProt Q96F46 33-866)
T1 construct: human IL-17 receptor A, endogenous on the surface of human cell lines; Expression on THP-1 was confirmed with an anti-IL-17RA antibody; also called cell-surface IL-17RA; IL-17RA-expressing THP-1 cells; source: endogenous, on THP-1 cells; endogenous, on HaCaT cells
Assay: LigandTracer Green Line (real-time binding to cells); adherent HaCaT cells on a dish; biotinylated His6-ARS-TolA-AVI added stepwise (3, 30, 90 nM by the results), then dissociation in fresh medium or PBS (ARS043); one-to-one model, TraceDrawer
Conditions: one partner purified

Binder | Kd
B1 | 2 nM
B2 | 0.7 nM
B3 | 1.2 nM
B4 | 35 nM
B5 | 32 nM
